Consider one molecule from article PMC6364807 (Nature, 2019).

In the test the target is human GABAA receptor β3 subunit (human, UniProt P28472, N-linked glycans at Asn80 and Asn149). The experiment in a line: cryo-EM structure.
Chain of human GABAA receptor β3 subunit (P28472 26-473): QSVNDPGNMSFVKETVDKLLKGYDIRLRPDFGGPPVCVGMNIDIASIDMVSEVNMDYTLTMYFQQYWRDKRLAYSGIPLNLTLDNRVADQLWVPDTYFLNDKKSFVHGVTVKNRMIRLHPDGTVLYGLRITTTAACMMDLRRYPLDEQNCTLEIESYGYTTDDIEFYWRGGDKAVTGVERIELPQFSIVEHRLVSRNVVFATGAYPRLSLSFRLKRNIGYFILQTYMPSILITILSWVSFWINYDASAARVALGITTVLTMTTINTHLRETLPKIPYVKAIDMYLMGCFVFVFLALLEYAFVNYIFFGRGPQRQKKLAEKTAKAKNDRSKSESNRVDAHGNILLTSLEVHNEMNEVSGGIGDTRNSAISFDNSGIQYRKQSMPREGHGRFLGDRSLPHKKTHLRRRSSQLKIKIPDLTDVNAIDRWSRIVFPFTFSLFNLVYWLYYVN

B1: megabody MbNb38^cHopQ (VHH)
VHH: QVQLQESGGGLVQAGGSLRVSCAASGRTFTAYIMAWFRQAPGKEREFLAAMDQGRIQYYGDSVRGRFTISRDYAKNSVDLQLDGLRPEDTAVYYCAAGAGFWGLRTASSYHYWGQGTQVTVSS
B1: the binding result is recorded as “binds”.
